Measurements reported in patent US20160009788A1 (UNITED STATES OF AMERICA AS REPRESENTED BY THE SECRETARY …, published 2016).
Residue numbers refer to the chain shown, from its start.

Assays:
bovine serum albumin = target: T1, bovine serum albumin (bovine, UniProt P02769 25-607); assay: ELISA, antigen on the solid phase, soluble Fab
T1 construct: Control antigen; also called BSA

[1] = target: T2, NV VP1 G365N/V370I/I376V triple mutant (Norwalk virus, UniProt Q83884 1-530); assay: immunofluorescence on transfected Vero cells
T2 construct: whole, on cells; Expressed in transfected Vero cells, methanol-fixed, immunofluorescence
T2 sequence (looked up): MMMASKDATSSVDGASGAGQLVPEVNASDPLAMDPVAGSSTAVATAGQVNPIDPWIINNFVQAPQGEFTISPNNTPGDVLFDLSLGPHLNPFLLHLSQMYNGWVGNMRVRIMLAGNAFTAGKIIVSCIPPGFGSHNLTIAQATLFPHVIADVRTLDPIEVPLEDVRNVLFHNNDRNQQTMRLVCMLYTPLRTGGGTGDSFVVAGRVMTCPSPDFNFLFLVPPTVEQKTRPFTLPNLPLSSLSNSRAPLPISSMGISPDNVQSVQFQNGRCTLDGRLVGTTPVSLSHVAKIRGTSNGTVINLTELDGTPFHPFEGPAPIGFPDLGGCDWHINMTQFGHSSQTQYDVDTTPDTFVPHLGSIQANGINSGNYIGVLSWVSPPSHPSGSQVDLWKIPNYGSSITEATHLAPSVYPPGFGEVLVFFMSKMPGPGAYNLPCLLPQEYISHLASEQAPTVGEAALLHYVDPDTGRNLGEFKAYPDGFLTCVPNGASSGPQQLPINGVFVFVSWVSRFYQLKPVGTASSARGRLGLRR

[2] = target: T3, NV VP1 G365N/I376V double mutant (Norwalk virus, UniProt Q83884 1-530); assay: immunofluorescence on transfected Vero cells
T3 construct: whole, on cells; Expressed in transfected Vero cells, methanol-fixed, immunofluorescence
T3 sequence (looked up): T2 sequence (looked up) with I370V

NV VP1 G365N mutant = target: T4, NV VP1 G365N mutant (Norwalk virus, UniProt Q83884 1-530); assay: immunofluorescence on transfected Vero cells
T4 construct: whole, on cells; Expressed in transfected Vero cells, methanol-fixed, immunofluorescence
T4 sequence (looked up): T2 sequence (looked up) with I370V, V376I

[3] = target: T5, NV VP1 G365N/V370I double mutant (Norwalk virus, UniProt Q83884 1-530); assay: immunofluorescence on transfected Vero cells
T5 construct: whole, on cells; Expressed in transfected Vero cells, methanol-fixed, immunofluorescence
T5 sequence (looked up): T2 sequence (looked up) with V376I

[4] = target: T6, Norwalk virus (NV, GI.1) recombinant virus-like particles (capsid protein VP1) (Norwalk virus, UniProt Q83884 1-530); assay: SPR (Biacore 1000), NV rVLP amine-coupled to CM5 chip, Fab as analyte 1-10 nM, Langmuir model
T6 construct: also called NV rVLP; NV-VLP
T6 sequence: T2 sequence (looked up) with N365G, I370V, V376I

T1 sequence (P02769 25-607 limits assumed): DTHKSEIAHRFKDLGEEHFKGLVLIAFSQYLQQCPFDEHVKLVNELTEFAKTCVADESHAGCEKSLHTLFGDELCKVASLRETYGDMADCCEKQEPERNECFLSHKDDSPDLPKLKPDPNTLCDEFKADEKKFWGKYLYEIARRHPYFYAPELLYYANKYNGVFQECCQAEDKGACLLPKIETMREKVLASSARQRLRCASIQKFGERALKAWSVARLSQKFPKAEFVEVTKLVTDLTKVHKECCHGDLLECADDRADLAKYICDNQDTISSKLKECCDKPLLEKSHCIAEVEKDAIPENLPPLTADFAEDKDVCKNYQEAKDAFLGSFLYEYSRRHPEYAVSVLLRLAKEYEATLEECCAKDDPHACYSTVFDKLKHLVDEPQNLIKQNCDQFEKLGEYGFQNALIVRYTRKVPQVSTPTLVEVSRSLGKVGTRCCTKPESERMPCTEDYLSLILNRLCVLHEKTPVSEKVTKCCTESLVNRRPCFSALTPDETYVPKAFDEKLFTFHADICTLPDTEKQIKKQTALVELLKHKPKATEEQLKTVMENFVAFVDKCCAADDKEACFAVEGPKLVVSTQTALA

B1: anti-NV Fab G4 (Fab, V domains shown)
VH: EVQLEESGGGLVKPGGSLRLSCAASGFTFSHYVMYWVRQAPEKGLEWVSTISGSGSSTWYPDSVKGRFTVSRDNSKNTLYLQMNSLRGDDTAVYYCARLQGQLVYWGLGTLVTVS
VL: ELQMTQSPSTLSASVGDRVTITCRASQGISSWLAWYQQKPGRAPKLLIYKSSTLESGVPSRFSGSGSGTEFTLTISSLQPDDFATYFCQQYSSNPPLTFGGGTKVEIKR
notes: also called Norwalk Fab G4
Bovine serum albumin
  binding result: no binding
[1]
  binding result: no binding (tested: 5 ug/mL)
[2]
  binding result: no binding (tested: 5 ug/mL)
NV VP1 G365N mutant
  binding result: no binding (tested: 5 ug/mL)
[3]
  binding result: no binding (tested: 5 ug/mL)
[4]
  Kd: 0.974 nM
  koff: 0.00142 s⁻¹
  kon: 1.46e+06 M⁻¹ s⁻¹
